Where a chain is given by its changes, count along the chain named. Numbers in names are those of the source. Entries after “also recorded” stand apart in the source; their conditions may differ.
Legend:
Type in all cases: biochemical
[1] = DMAPP assay of site evaluation library (SEL) lysates with ELISA protein quantitation: specific activity ranked as performance index; details: for performance index: primary SEL screen, activity on DMAPP per unit weight relative to the parental molecule (parent = 1); for isoprene synthase activity of variants relative to parent, in words: SEL analysis of P. alba IspS
Method: 1. Prepared Patch Plates from Glycerol Stock Plates. Using a V&S 96 pin Replication Tool, cultures were patched onto a LB Agar 35 CMP/50 Kan large patch plates from overnight glycerol stock plates. Plates were incubated at 30° C. overnight for 20 to 24 hr. Cultures can be stored at 4° C. for up to a week.
2. Prepared Overnight Growth Plates. 500 mL of LB 35 CMP/50 Kan media were prepared. 300 μL/well of LB 35 CMP/50 Kan media were dispensed into deep 96 well plates (VWR). Using a V&S Replication Tool, the patch inoculum was transferred into deep 96 well plate by touching the tool pins to respective patch and using a circular motion to coat the pins with inoculum. The media was inoculated by dipping the tool then shaking the pin within the well. The overnight growth plates were sealed using a Breathe-Easier Sealing Membrane (Diversified Biotech). The plates were incubated in a Vertiga Shaking Incubator at 30° C. with shaking at 800 rpm overnight for 16 to 18 hr.
3. Prepared Day Growth Plate. Deep 96 well plates were prepared by dispensing 588 μL/well of LB 35 CMP/50 Kan media. Overnight growth plates were removed from the incubator. Overnight cultures were diluted 50-fold and 12 μL of overnight culture were transferred to day growth plates containing 588 μL/well of LB media containing antiobiotics. Overnight growth plates were sealed with new Breathe-Easier Sealing Membranes. Cultures were incubated at 30° C. and 800 rpm for 2.5 hr. Frozen 12 mM IPTG (Sigma) vials were removed from −20° C. and placed in a hood to thaw.
4. OD600 Plate Read of Overnight, Induction, and Harvest. 150 μL 1×PBS were dispensed into 96 well Costar Read Plates (#9017). 50 μL of culture samples were transferred to Read Plates. The OD600 reading was recorded using a Spectramax Plate Reader (Molecular Devices).
5. Induction. Electronic multi-channel pipettors were prepared to dispense 4×20 μL/well of IPTG (if 4× replicates). The multi-dispense option in the electronic pipettor was adjusted if more replicates was necessary. Thawed 12 mM IPTG was poured into 50 mL or 100 mL sterile reservoirs. 20 μL/well of IPTG into each 600 μL/well culture. Overnight growth plates were resealed. Cultures were incubated at 30° C. and 800 rpm for 4 hr. OD600 readings of plates were recorded according instructions above.
6. Harvest. 400 μL of induced culture were transferred to 800 μL Grenier storage plates. Plates were centrifuged at 3300 rpm for 20 min at 2° to 8° C. in a low speed benchtop centrifuge. Supernatants were discarded, pellets should stay in the conical bottom well. Residual supernatants were slapped out onto a paper towel on the benchtop. Plates were sealed with an aluminum foil membrane (Beckman-Coulter). Plates were covered with a plastic plate lid if available. Storage plates were labeled accordingly and stored frozen at −80° C.
Plates containing induced cell pellets were removed from the −80° C. freezer and allowed to thaw on the benchtop for 30 minutes prior to lysis. 200 μl of lysis buffer (50 mM Tris pH 8, 25 mM MgCl2, 74 μg/ml DNase I, 250 U/ml lysozyme, 0.1% Tween 20, 0.5 mM PMSF) was added to each pellet, and plates were incubated on an Eppendorf Thermomixer at 25° C. for 30 minutes at 1200 rpm. After lysis, plates were centrifuged at 3450 rpm for 15 minutes at 4° C. Supernatants were then removed and diluted 10-fold prior to DMAPP assay. 80 μl of the diluted supernatant was added to 20 μl of the DMAPP working stock (20 mM DMAPP in 0.1 M Phosphate Buffer pH 8.2, DMAPP triammonium salt, Cayman chemicals) in a Zinsser glass block. Blocks were then sealed with aluminum sealing membranes, and incubated in Thermomixers at 25° C. for 30 minutes at 450 rpm. Reactions were stopped by incubating blocks on Thermomixers at 70° C. for 12 minutes at 450 rpm. GC-MS was then used for headspace measurements to calculate the amount of isoprene produced by each lysates.
Headspace Assay. […]

[2] = Specific activity measurement of purified isoprene synthase variants (4 mM DMAPP, 30 C, GC-MS headspace); details: for S.A. / Variant S.A./WT S.A.: 50 mM NaCl, 50 mM Tris pH = 8, 30° C.; for Variant S.A./WT S.A.: ratio to WT
Method: 1. Initial Purification—Resuspend the pellet in 3 ml of fresh lysis buffer. Break cells by passing them through the French Press using the small cylinder. Centrifuge samples for 1 hour at 30,000×G and collect the supernatant. Retain pellet in order to test for presence of insoluble protein. Pre equilibrate 0.5 mL Ni Sepharose 6 Fast Flow resin (Amersham) in a 20 ml disposable column with 10 mL of Ni wash buffer. Add protein to column and shake for 60 min at 4 C to bind protein. Elute protein with 2.5 mL Ni elution buffer.
2. Buffer Exchange—Equilibrate a PD-10 column (GE Healthcare) with 25 mL of PD-10 buffer. Load protein on to column and elute with 3.5 mL of PD-10 buffer.
10 uL of purified enzyme was incubated with 4 mM DMAPP, 50 mM MgCl2 in a buffer containing 50 mM Tris and 50 mM NaCl (pH=8) to a final volume of 100 uL for 15 min. at 30 C in gas tight 2 mL vials. Reactions were terminated with the addition of 100 uL of […] EDTA, pH=8. Samples were analyzed by GC-MS to determine the concentration of isoprene in the headspace of the vials. All specific activity measurements were performed in triplicate.
(§1) Protein concentration was determined by measuring the absorbance of each protein solution at 280 nm on a Helwlett Pachard 8453 UV-Vis spectrophotometer and converting the absorbance to protein concentration using the extinction coefficient as determined on the Expasy website (Gasteiger E., Hoogland C., Gattiker A., Duvaud S., Wilkins M. R., Appel R. D., Bairoch A.; Protein Identification and Analysis Tools on the ExPASy Server; (In) John M. Walker (ed): The Proteomics Protocols Handbook, Humana Press (2005). pp. 571-607). The protein concentrations of isoprene synthase variants assayed for KM and kcat determination were verified by comparative gel electrophoresis of a dilution series of each protein (FIG. 61).

[3] = kcat, KM and Ki determination, rate vs [DMAPP], fit to uncompetitive substrate inhibition
Method: 10 uL of purified enzyme was incubated with DMAPP at concentrations ranging from 1.25 to 20 mM DMAPP in a buffer containing 50 mM Tris, 50 mM MgCl2 and 50 mM NaCl (pH=8) to a final volume of 100 uL for 15 min. at 30 C in gas tight 2 mL vials. Reactions were terminated with the addition of 100 uL of 250 mM EDTA, pH=8. Samples were analyzed by GC-MS to determine the concentration of isoprene in the headspace of the vials. Data were analyzed using Kaleidagraph and fit to following equation for uncompetitive substrate inhibition: rate/E=kcat*S/(KM+S*(1+S/Ki)). All kinetic assays were performed in triplicate.
as §1

B1: D345T: P. alba IspS variant (protein, UniProt Q50L36 38-595, looked up, variant D345T)
Isoprene synthase, …: CSVSTENVSFTETETEARRSANYEPNSWDYDYLLSSDTDESIEVYKDKAKKLEAEVRREINNEKAEFLTLLELIDNVQRLGLGYRFESDIRGALDRFVSSGGFDAVTKTSLHGTALSFRLLRQHGFEVSQEAFSGFKDQNGNFLENLKEDIKAILSLYEASFLALEGENILDEAKVFAISHLKELSEEKIGKELAEQVNHALELPLHRRTQRLEAVWSIEAYRKKEDANQVLLELAILDYNMIQSVYQRDLRETSRWWRRVGLATKLHFARDRLIESFYWAVGVAFEPQYSDCRNSVAKMFSFVTIITDIYDVYGTLDELELFTDAVERWDVNAINDLPDYMKLCFLALYNTINEIAYDNLKDKGENILPYLTKAWADLCNAFLQEAKWLYNKSTPTFDDYFGNAWKSSSGPLQLVFAYFAVVQNIKKEEIENLQKYHDTISRPSHIFRLCNDLASASAEIARGETANSVSCYMRTKGISEELATESVMNLIDETWKKMNKEKLGGSLFAKPFVETAINLARQSHCTYHNGDAHTSPDELTRKRVLSVITEPILPFER
[1]
  performance index: 0.56

B2: D345V: P. alba IspS variant (protein, UniProt Q50L36 38-595, looked up, variant D345V)
Isoprene synthase, …: B1 Isoprene synthase, … with T308V
[1]
  performance index: 0.51

B3: D345M: P. alba IspS variant (protein, UniProt Q50L36 38-595, looked up, variant D345M)
Isoprene synthase, …: B1 Isoprene synthase, … with T308M
[1]
  performance index: 0.43

B4: D345S: P. alba IspS variant (protein, UniProt Q50L36 38-595, looked up, variant D345S)
Isoprene synthase, …: B1 Isoprene synthase, … with T308S
[1]
  performance index: 0.41

B5: D345C: P. alba IspS variant (protein, UniProt Q50L36 38-595, looked up, variant D345C)
Isoprene synthase, …: B1 Isoprene synthase, … with T308C
[1]
  performance index: 0.43

B6: D345Q: P. alba IspS variant (protein, UniProt Q50L36 38-595, looked up, variant D345Q)
Isoprene synthase, …: B1 Isoprene synthase, … with T308Q
[1]
  performance index: 0.56

B7: D345A: P. alba IspS variant (protein, UniProt Q50L36 38-595, looked up, variant D345A)
Isoprene synthase, …: B1 Isoprene synthase, … with T308A
[1]
  performance index: 0.50

B8: D345G: P. alba IspS variant (protein, UniProt Q50L36 38-595, looked up, variant D345G)
Isoprene synthase, …: B1 Isoprene synthase, … with T308G
[1]
  performance index: 0.55

B9: D345W: P. alba IspS variant (protein, UniProt Q50L36 38-595, looked up, variant D345W)
Isoprene synthase, …: B1 Isoprene synthase, … with T308W
[1]
  performance index: 0.46

B10: A453N: P. alba IspS variant A453N; pDW99, strain DW397, SEQ ID NO: 65 (protein)
chain: MEARRSANYEPNSWDYDYLLSSDTDESIEVYKDKAKKLEAEVRREINNEKAEFLTLLELIDNVQRLGLGYRFESDIRGALDRFVSSGGFDAVTKTSLHGTALSFRLLRQHGFEVSQEAFSGFKDQNGNFLENLKEDIKAILSLYEASFLALEGENILDEAKVFAISHLKELSEEKIGKELAEQVNHALELPLHRRTQRLEAVWSIEAYRKKEDANQVLLELAILDYNMIQSVYQRDLRETSRWWRRVGLATKLHFARDRLIESFYWAVGVAFEPQYSDCRNSVAKMFSFVTIIDDIYDVYGTLDELELFTDAVERWDVNAINDLPDYMKLCFLALYNTINEIAYDNLKDKGENILPYLTKAWADLCNAFLQEAKWLYNKSTPTFDDYFGNAWKSSSGPLQLVFAYFAVVQNIKKEEIENLQKYHDTISRPSHIFRLCNDLASASAEIARGETNNSVSCYMRTKGISEELATESVMNLIDETWKKMNKEKLGGSLFAKPFVETAINLARQSHCTYHNGDAHTSPDELTRKRVLSVITEPILPFERENLYFQGLEHHHHHH
[2]
  S.A.: 170 ± 30 nmol/mg/min
  Variant S.A./WT S.A.: 0.4
[1]
  isoprene synthase activity of variants relative to parent, in words: improved activity; also recorded: high performing
  performance index: 2.99

B11: T536C: P. alba IspS variant T536C; pDW102, strain DW400, SEQ ID NO: 71 (protein)
chain: B10 chain with N453A, T536C
[2]
  S.A.: 430 ± 10 nmol/mg/min
  Variant S.A./WT S.A.: 0.9
[1]
  isoprene synthase activity of variants relative to parent, in words: improved isoprene synthase activity; also recorded: high performing
  performance index: 1.48

B12: SP: P. alba MEA G491S L494P (+) TEV; pDW110, SEQ ID NO: 87 (protein)
chain: B10 chain with N453A, G491S, L494P
modifications: TEV site
[3]; 1.25 to 20 mM DMAPP, 30 C
  KM compared to WT isoprene synthase, in words: less than the KM of the WT
  rate profile vs [DMAPP]: uncompetitive substrate inhibition by DMAPP
[3]; 1.25 to 20 mM DMAPP, 30 C, average of three trials ± one standard deviation
  Km: 4.4 ± 0.3 mM
[3]; 1.25 to 20 mM DMAPP, 30 C, average of three trials ± one standard deviation, in s^-1 (unit assumed)
  kcat: 1.2 ± 0.1
[3]; uncompetitive substrate inhibition by DMAPP, average of three trials ± one standard deviation, read-out: KiDMAPP
  Ki: 18 ± 1 mM
[2]
  S.A.: 770 ± 40 nmol/mg/min
  Variant S.A./WT S.A.: 1.6
[2]; 30 C, purified enzyme
  specific activity compared to WT isoprene synthase, in words: increased specific activity; also recorded: greater than the WT isoprene synthase but less than the β isoprene synthase variant
